Measured values from patent publication EP3741773A1 (City of Hope, dated 2020).

Target: T1, meditope-enabled trastuzumab
T1 construct: after it there are no differences from the human heavy chain of trastuzumab; Full IgG was expressed; Labelled with Alexa dyes in FACS; also called TM; trastuzumab memab
Assay: SPR

T1 sequence (heavy, as listed by the source, chain 1 of 2): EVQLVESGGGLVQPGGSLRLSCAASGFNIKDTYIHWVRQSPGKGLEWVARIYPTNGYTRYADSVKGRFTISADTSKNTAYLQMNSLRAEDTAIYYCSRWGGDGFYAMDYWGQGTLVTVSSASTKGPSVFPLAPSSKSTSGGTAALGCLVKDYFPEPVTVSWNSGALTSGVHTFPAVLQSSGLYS
T1 sequence (light, as listed by the source, chain 2 of 2): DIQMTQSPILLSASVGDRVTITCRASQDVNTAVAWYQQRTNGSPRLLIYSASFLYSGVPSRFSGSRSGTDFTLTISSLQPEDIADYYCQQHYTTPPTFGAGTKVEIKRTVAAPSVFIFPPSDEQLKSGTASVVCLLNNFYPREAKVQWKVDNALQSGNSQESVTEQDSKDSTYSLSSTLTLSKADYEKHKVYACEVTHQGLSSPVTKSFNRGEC

B1: Protein L (other)
chain: SEVTIKVNLIFADGKIQTAEFKGTFEEATAEAYRYAALLAKVNGEYTADLEDGGNHMNIKFAG
notes: also called Protein L (only); PpL
Kd: ~500 nM
